We go through two substances from publication PMC9926306.

The experiment deals with ABCA1 (mouse (endogenous in J774)) (UniProt P41233).
UniProt P41233, sequence (P41233 whole entry): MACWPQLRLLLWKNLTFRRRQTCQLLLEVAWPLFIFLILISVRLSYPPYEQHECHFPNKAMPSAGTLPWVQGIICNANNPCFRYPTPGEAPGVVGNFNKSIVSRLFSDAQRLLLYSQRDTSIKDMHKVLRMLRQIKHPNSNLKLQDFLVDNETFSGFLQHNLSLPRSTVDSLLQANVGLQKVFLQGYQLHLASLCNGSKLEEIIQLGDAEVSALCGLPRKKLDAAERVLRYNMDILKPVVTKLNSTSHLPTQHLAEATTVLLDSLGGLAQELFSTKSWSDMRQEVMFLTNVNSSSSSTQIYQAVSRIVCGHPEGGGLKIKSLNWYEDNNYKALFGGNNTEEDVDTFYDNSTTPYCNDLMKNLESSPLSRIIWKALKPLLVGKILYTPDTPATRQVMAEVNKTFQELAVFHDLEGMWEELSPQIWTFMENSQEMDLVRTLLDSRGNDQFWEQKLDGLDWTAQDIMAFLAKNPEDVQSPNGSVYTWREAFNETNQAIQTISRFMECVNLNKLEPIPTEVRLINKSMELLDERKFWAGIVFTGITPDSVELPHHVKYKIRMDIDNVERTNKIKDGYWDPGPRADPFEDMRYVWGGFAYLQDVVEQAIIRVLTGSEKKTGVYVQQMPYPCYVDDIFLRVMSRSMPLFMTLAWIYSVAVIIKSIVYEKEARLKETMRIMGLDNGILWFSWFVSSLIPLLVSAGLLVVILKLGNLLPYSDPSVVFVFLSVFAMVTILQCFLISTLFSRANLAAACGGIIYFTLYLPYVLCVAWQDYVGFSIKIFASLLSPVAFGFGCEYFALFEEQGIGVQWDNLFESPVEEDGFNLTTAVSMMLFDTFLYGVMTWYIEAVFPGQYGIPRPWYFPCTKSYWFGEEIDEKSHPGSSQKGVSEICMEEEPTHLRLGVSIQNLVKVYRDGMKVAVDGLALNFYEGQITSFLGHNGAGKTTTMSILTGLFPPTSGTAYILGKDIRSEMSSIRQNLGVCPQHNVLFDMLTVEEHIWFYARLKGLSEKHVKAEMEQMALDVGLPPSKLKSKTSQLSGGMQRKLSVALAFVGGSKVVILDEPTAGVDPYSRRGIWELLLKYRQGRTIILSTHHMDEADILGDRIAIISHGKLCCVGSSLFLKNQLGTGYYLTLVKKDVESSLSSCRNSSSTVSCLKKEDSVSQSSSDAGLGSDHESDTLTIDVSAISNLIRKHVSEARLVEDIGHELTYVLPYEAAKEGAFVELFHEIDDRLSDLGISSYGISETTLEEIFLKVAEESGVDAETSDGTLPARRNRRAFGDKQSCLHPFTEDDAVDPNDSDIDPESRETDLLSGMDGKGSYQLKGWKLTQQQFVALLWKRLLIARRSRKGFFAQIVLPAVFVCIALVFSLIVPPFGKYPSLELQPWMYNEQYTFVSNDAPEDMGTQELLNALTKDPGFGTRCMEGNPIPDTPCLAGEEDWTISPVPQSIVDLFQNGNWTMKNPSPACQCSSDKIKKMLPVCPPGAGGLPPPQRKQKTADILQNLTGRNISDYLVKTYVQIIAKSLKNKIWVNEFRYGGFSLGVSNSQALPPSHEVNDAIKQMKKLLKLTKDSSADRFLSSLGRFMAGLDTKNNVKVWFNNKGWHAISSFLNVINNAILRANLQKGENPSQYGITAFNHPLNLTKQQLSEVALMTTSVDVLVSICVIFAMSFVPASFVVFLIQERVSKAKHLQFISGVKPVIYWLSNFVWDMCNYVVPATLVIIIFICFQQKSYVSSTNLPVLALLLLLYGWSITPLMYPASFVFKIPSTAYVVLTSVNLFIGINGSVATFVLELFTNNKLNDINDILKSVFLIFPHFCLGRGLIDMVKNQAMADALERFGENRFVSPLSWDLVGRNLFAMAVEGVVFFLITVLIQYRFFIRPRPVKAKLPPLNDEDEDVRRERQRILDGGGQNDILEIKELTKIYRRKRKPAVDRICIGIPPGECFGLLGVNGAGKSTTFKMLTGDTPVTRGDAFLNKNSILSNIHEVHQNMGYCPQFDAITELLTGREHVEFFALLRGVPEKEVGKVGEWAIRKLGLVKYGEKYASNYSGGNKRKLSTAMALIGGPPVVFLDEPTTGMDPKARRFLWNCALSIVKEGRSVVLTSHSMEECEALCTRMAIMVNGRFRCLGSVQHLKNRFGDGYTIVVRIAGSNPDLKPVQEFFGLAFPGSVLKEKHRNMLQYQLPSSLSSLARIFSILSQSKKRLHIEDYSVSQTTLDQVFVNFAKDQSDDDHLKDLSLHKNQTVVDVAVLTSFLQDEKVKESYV

On to “WT apoA-I (from UniProt P02647 19-267) (natural protein)”, for which the percent BODIPY-cholesterol efflux from J774 cells treated with cAMP (ABCA1 upregulated), apoA-I 10 ug/ml, 6 and 24 h; value after 24 h turned out to be 28.7%.

Consider apoA-I[K107del] (natural protein), for which the percent BODIPY-cholesterol efflux from J774 cells treated with cAMP (ABCA1 upregulated), apoA-I 10 ug/ml, 6 and 24 h; value after 24 h is 27.9%.
